{"source": "patent US9499823B2", "about": "“Constructs expressing chimeric receptors and use thereof for the controlled activation of defence response to pathogens in plants” (priority 2009, dated 2016)", "key": {"[1]": {"system": "transgenic Arabidopsis leaves", "experiment": "Constitutive activation of defense responses (H2O2, callose) in transgenic plants", "format": "cell-based, Arabidopsis thaliana", "settings": "no elicitor", "experimental": "Leaves were stained with 3,3′-diaminobenzidine (DAB) for H2O2 visualization (upper panel) and with aniline blue for callose visualization (lower panel).\n(§1) 3,3′-diaminobenzidine (DAB) staining, callose deposition and gene resistance analysis were assayed as described (Galletti et al., 2008). For measuring active oxygen species released by tobacco agroinfiltrated plants after elicitor treatment, the authors used a modified luminol-dependent assay (Gomez et al., 1999). Slices, corresponding to approximately 30 mg fresh weight, were transferred to assay tubes containing 1 μM flg22 or 10 μM elfl8 in aqueous solution supplied with 40 μM luminol (SIGMA). Chemo-luminescence was measured in a liquid scintillation counter (LS-6500, Beckman) after 5 and 15 min upon addition of elicitors."}, "B. cinerea": {"system": "B. cinerea", "experiment": "Lesion development in Arabidopsis plants inoculated with B. cinerea", "format": "in vivo", "settings": "transgenic Arabidopsis vs Col-0 or Col-0 efr, 48 h post-inoculation", "experimental": "(§2) (A) Growth of A. tumefaciens in N. tabacum tissues transiently expressing receptor proteins. Tobacco leaves were infiltrated with Agrobacterium carrying the indicated receptor constructs and the number of Agrobacterium colony-forming units (c.f.u.) in the tissues was analyzed immediately after infiltration (white bars) and after 24 h (gray bars). EFR and eJMC were used as positive and negative controls, respectively. For each receptor, three samples were analyzed in five independent experiments. Asterisks indicate statistically significant differences against control (Col-0 for WAK1 plants and Col-0 efr for WEG and EWAK plants). (B) Lesion development in Arabidopsis wild type (Col-0) and mutant Col-0 efr plants and in transgenic plants expressing WAK1, WEG and EWAK plants inoculated with B. cinerea at 48 h post-inoculation. Values are means±s.e.m. of at least 16 lesions. The same experiment was performed in a second independent transgenic line expressing WAK1 with similar results. Asterisks indicate statistically significant differences against control (Col-0 for WAK1 plants and Col-0 efr for WEG and EWAK plants)."}, "[2]": {"system": "ethylene biosynthesis in tobacco leaves", "experiment": "Induction of ethylene biosynthesis in agroinfiltrated tobacco leaf explants", "format": "cell-based, Nicotiana tabacum", "settings": "elfl8 10 μM, 2 h", "experimental": "F) Induction of ethylene biosynthesis in agroinfiltrated tobacco leaves expressing the fluorescent EFR, FLS2, TMC, eJMC and eJMC^Y859A. NC: negative control, represented by agroinfiltrated leaf tissues expressing fluorescent EFR or FLS2 and elicited with flg22 or elfl8, respectively. Results are averages±standard error (n=3).\nExcised infiltrated leaf sectors were stimulated for 2 h with water or the elicitor ([…] and 100 μg/ml for OGs). Values are means±s.e.m. (N=3).\nE) Induction of ethylene biosynthesis in agroinfiltrated tobacco leaves expressing EFR, WAK1, WEG and EWAK. Each construct was stimulated for 2 h with elfl8 (10 μM) or OGs (100 μg/mL). NC: negative control, represented by agroinfiltrated leaf tissue expressing EFR or FLS2 when OGs or elfl8, respectively, were used for elicitation. Error bars indicate the standard error of three independent replicates.\n(A) Induction of ethylene biosynthesis in agroinfiltrated tobacco explants expressing EFR, WAK1, WEG and EWAK. […] Agroinfiltrated leaf tissues expressing EFR or WEG and elicited with OGs or elfl8 respectively, represented our negative control. Values are means±s.e.m. (N=3). (B) Elicitor-induced gene expression in untransformed Col-0 and Col-0 efr plants, and in transgenic Arabidopsis Col-0 efr plants stably expressing WEG. Accumulation of At3g22270 and At4g37640 transcripts was analysed by semi-quantitative PCR, using the UBQ5 gene for normalization. Adult leaves were syringe-infiltrated with water, OGs (25 μg/ml) or elfl8 (10 μM) for 3 h. The experiment was repeated three times with similar results. The same experiment was performed in a second independent transgenic line expressing WEG with similar results.\nApproximately 150 mg of tobacco agroinfiltrated leaf were cut in small slices and extensively washed with sterile distilled water. The explants were placed in sealed 10 mL flasks containing 2 mL of sterile water alone or supplemented with 100 mg L^−1 OGs, or 1 μM flg22 or 10 μM elfl8. 450 μl headspace samples were withdrawn from the vial after 2 h treatment and analyzed by gas chromatography-mass spectrometry using an Agilent 6850A gas chromatograph coupled to a 5973N quadrupole mass selective detector (Agilent Technologies, Palo Alto, Calif., USA). Chromatographic separations were carried out an HP Plot-Q fused-silica capillary column (30 m×0.32 mm i.d.) coated with polystyrene-divinylbenzene (film thickness 0.20 μm) as stationary phase. Injection mode: splitless at a temperature of 220° C. The initial temperature of the oven was held at 50° C. for 8 min then ramped to 220° C. at a rate of 15° C./min and held for 5 min. Helium was used as carrier gas at a constant flow of 1.0 ml/min. Mass spectra were collected both in full scan and in SIM mode monitoring the ions m/z m/z 26, m/z 27 and m/z 28 (ionization energy 70 eV; ion source 280° C.; ion source vacuum 10^−5 Torr)."}, "[3]": {"system": "Pseudomonas syringae DC3000", "experiment": "Pseudomonas DC3000 infection of Arabidopsis Ws-0 plants by spraying", "format": "in vivo", "settings": "transgenic Ws-0 plants vs Ws-0 wild type, 4 days post infection", "excerpt": "C) Pseudomonas DC3000 infections. (Left Panel) Symptoms disease of wild type and transformed plants after 4 days post infection. (Right panel) Growth of Pseudomonas syringae DC3000 after 4 day post infection. ***, p<0.005.\nThe authors therefore infected A. thaliana plants by spraying Pst DC3000 bacteria onto leaf surfaces. […] Higher resistance of eJMC plants, compared to Ws-0 wild-type plants, was found in all of three independent experiments."}, "[4]": {"system": "oxidative burst in tobacco leaves", "experiment": "Oxidative burst, luminol-dependent photon counting in agroinfiltrated tobacco leaf slices", "format": "cell-based, Nicotiana tabacum", "settings": "10 μM elfl8, after 15 min", "experimental": "D) Oxidative burst in tobacco leaves transiently expressing eJMC, EFR and EWAK. Photon counting was realized using tobacco leaves slices in a solution of luminol and peroxidase, during treatment with 10 μM elfl8. eJMC- and EFR-expressing explants were used as a negative and a positive control, respectively. Experiment was repeated at least 6 times on two independent replicated.\n(C) Oxidative burst in agroinfiltrated tobacco leaves expressing EWAK. Leaves expressing eJMC and EFR were used as a negative and a positive control, respectively. The burst was measured by photon counting using leaf slices incubated in a solution containing 10 μM elfl8, luminol and peroxidase. The experiment was repeated at least 6 times with two independent replicates.\nas §1"}, "[5]": {"system": "Pectobacterium carotovorum subsp. carotovorum", "experiment": "Infection assay with Pectobacterium carotovorum on transgenic Arabidopsis leaves", "format": "in vivo", "settings": "transgenic Arabidopsis vs Col-0 or Col-0 efr, 24 h, 5×10^7 CFU/ml", "experimental": "Inoculum concentration was 5×10^7 CFU/ml). Values are means±SE of at least 16 lesions. Asterisks indicate statistically significant differences against control plants (Col-0 or Col-0 efr), according to Student's t test (*, p<0.0005).\nAgrobacterium tumefaciens GV3101 strain infections was performed as described in Katagiri et al., (2002) and using a concentration of Agrobacterium corresponding at an OD600 of 1.0 in 10 mM MgCl2 and 600 μM acetosyringone. After 24 h of infiltration, serial dilution of Agrobacterium colonies were deposited on LB agar supplemented with gentamycin and rifampicin and grown for 2-3 days at 28° C. in the dark. At least 5 independent plants and 3 different leaves by plant, were used per experiment. Pectobacterium carotovorum subsp. carotovorum infections Pectobacterium carotovorum subsp. carotovorum (formely Erwinia carotovora; Gardan et al., 2003) (strain DMSZ 30169) was obtained from DSMZ GmbH (Germany). A liquid colture using 10 ml LB medium was prepared. […]\nFor infection, fully developed leaves of 4 week old Arabidopsis plants were detached and placed in 0.8% agar Petri dishes. […] Symptoms were scored measuring the area of macerated tissue after 24 hour post inoculation at 22° C. and 12 h photoperiod. Area was measured by ImageJ software. […]"}, "[6]": {"system": "Agrobacterium tumefaciens GV3101", "experiment": "Growth of Agrobacterium in N. tabacum tissues transiently expressing receptor proteins", "format": "in vivo", "settings": "24 h after inoculation, tobacco tissues expressing the receptor, p<0.005", "experimental": "F) Growth of Agrobacterium in N. tabacum tissues transiently expressing receptor proteins. Tobacco leaves were infiltrated with Agrobacterium expressing the indicated receptors and the number of Agrobacterium colony-forming units (c.f.u.) in the tissues was analyzed soon after infiltration (white bars) and 24 h (gray bars). EFR and eJMC were used as positive and negative controls, respectively. For each receptor, three samples were analyzed in five independent experiments. *, p<0.005.\nas §2\nAgrobacterium tumefaciens GV3101 strain infections was performed as described in Katagiri et al., (2002) and using a concentration of Agrobacterium corresponding at an OD600 of 1.0 in 10 mM MgCl2 and 600 μM acetosyringone. After 24 h of infiltration, serial dilution of Agrobacterium colonies were deposited on LB agar supplemented with gentamycin and rifampicin and grown for 2-3 days at 28° C. in the dark. At least 5 independent plants and 3 different leaves by plant, were used per experiment. Pectobacterium carotovorum subsp. carotovorum infections Pectobacterium carotovorum subsp. carotovorum (formely Erwinia carotovora; Gardan et al., 2003) (strain DMSZ 30169) was obtained from DSMZ GmbH (Germany). A liquid colture using 10 ml LB medium was prepared. After 16 h of growth at 28° C. on rotary shaker at 250 rpm, bacterial cells were harvested by centrifugation and the pellet was resuspended in 50 mM potassium phosphate buffer pH 7.0 corresponding to 5×10^7 CFU/ml."}}, "note": "Entries after “also recorded” stand apart in the source; their conditions may differ."}
{"molecule": "EWAK: chimera: EFR ectodomain fused to the TM-iJM-kinase portion of WAK1, GFP-fused (protein, left off: large carriers) RFSNETDMQALLEFKSQVSENNKREVLASWNHSSPFCNWIGVTCGRRRERVISLNLGGFKLTGVISPSIGNLSFLRLLNLADNSFGSTIPQKVGRLFRLQYLNMSYNLLEGRIPSSLSNCSRLSTVDLSSNHLGHGVPSELGSLSKLAILDLSKNNLTGNFPASLGNLTSLQKLDFAYNQMRGEIPDEVARLTQMVFFQIALNSFSGGFPPALYNISSLESLSLADNSFSGNLRADFGYLLPNLRRLLLGTNQFTGAIPKTLANISSLERFDISSNYLSGSIPLSFGKLRNLWWLGIRNNSLGNNSSSGLEFIGAVANCTQLEYLDVGYNRLGGELPASIANLSTTLTSLFLGQNLISGTIPHDIGNLVSLQELSLETNMLSGELPVSFGKLLNLQVVDLYSNAISGEIPSYFGNMTRLQKLHLNSNSFHGRIPQSLGRCRYLLDLWMDTNRLNGTIPQEILQIPSLAYIDLSNNFLTGHFPEEVGKLELLVGLGASYNKLSGKMPQAIGGCLSMEFLFMQGNSFDGAIPDISRLVSLKNVDFSNNNLSGRIPRYLASLPSLRNLNLSMNKFEGRVPTTGVFRNATAVSVFGNTNICGGVREMQLKPCIVQASPRKRKPLSVRKKVVSGWTTILLVTTIGFLVILLGVACIQQRMKHLKDTKLREQFFEQNGGGMLTQRLSGAGPSNVDVKIFTEDGMKKATNGYAESRILGQGGQGTVYKGILPDNSIVAIKKARLGDSSQVEQFINEVLVLSQINHRNVVKLLGCCLETEVPLLVYEFITNGTLFDHLHGSMIDSSLTWEHRLKIAIEVAGTLAYLHSSASIPIIHRDIKTANILLDVNLTAKVADFGASRLIPMDKEELETMVQGTLGYLDPEYYNTGLLNEKSDVYSFGVVLMELLSGQKALCFKRPQSSKHLVSYFATATKENRLDEIIGGEVMNEDNLKEIQEAARIAAECTRLMGEERPRMKEVAAKLEALRVEKTKHKWSDQYPEENEHLIGGHILSAQGETSSSIGYDSIKNVAILDIETGR", "values": [{"measurement": "constitutive activation of defense responses (H2O2 levels, callose deposits)", "setting": "[1]", "result": "do not show constitutive activation of defense responses"}, {"measurement": "resistance to B. cinerea infection", "setting": "B. cinerea", "result": "not"}, {"measurement": "ethylene accumulation upon stimulation with elfl8", "setting": "[2]", "result": "did not"}, {"measurement": "development of disease symptoms / susceptibility to Pst DC3000", "setting": "[3]", "result": "confers resistance"}, {"measurement": "oxidative burst upon treatment with elfl8", "setting": "[4]", "result": "produced an oxidative burst; also recorded: robust oxidative burst"}, {"measurement": "resistance to Pectobacterium carotovorum subsp. carotovorum", "setting": "[5]", "result": "increased resistance; also recorded: confers resistance"}, {"measurement": "decrease in the number of living Agrobacterium cells", "setting": "[6]", "result": 30, "unit": "%"}]}
